Measurements from patent US20200048312A1.

Tests used:
[1] = target: antibodies of human serum sample 16CDV61197 (Zika IgG positive) (human); assay: blocking of wing DAGS ECL signal
[2] = target: antibodies of human serum sample 16CDV61275 (Zika IgG) (human); assay: blocking of wing DAGS ECL signal
[3] = target: antibodies of human serum sample 16CDV61278 (Zika IgG positive) (human); assay: blocking of wing DAGS ECL signal
[4] = target: antibodies of human serum sample 16CDV61197 (Zika IgG positive) (human); assay: blocking of ß-ladder DAGS ECL signal
[5] = target: antibodies of human serum sample 16CDV61275 (Zika IgG) (human); assay: blocking of ß-ladder DAGS ECL signal
[6] = target: antibodies of human serum sample 16CDV61278 (Zika IgG positive) (human); assay: blocking of ß-ladder DAGS ECL signal

B1: Dengue virus type 4 NS1 full length (protein)
chain: DTGCAVSWSGKELKCGSGIFVIDNVHTWTEQYKFQPESPARLASAILNAHEDGVCGIRSTTRLENIMWKQITNELNYVLWEGGHDLTVVAGDVKGVLSKGKRALAPPVNDLKYSWKTWGKAKIFTPEAKNSTFLIDGPDTSECPNERRAWNFLEVEDYGFGMFTTNIWMKFREGSSEVCDHRLMSAAIKDQKAVHADMGYWIESSKNQTWQIEKASLIEVKTCLWPKTHTLWSNGVLESQMLIPKAYAGPFSQHNYRQGYATQTVGPWHLGKLEIDFGECPGTTVTIQEDCDHRGPSLRTTTASGKLVTQWCCRSCTMPPLRFLGEDGCWYGMEIRPLSEKEENMVKSQVSA
Blocking [%] [1]: 0.891% | Normalized to Zika Blocking [%] [1]: 1.2% | Blocking [%] [2]: 2.48% | Normalized to Zika Blocking [%] [2]: 3.3% | Blocking [%] [3]: 4.5% | Normalized to Zika Blocking [%] [3]: 4.9% | Blocking [%] [4]: 31.6% | Normalized to Zika Blocking [%] [4]: 50.3% | Blocking [%] [5]: 25.1% | Normalized to Zika Blocking [%] [5]: 27.3% | Blocking [%] [6]: 2.6% | Normalized to Zika Blocking [%] [6]: 3.7%
